Test results as given in patent US20220112276A1 (Janssen / Centocor, published 2022).

T1: rat pIgR extracellular domain (rat, UniProt P15083 19-643)
T1 construct: extracellular domain
T1 sequence (looked up): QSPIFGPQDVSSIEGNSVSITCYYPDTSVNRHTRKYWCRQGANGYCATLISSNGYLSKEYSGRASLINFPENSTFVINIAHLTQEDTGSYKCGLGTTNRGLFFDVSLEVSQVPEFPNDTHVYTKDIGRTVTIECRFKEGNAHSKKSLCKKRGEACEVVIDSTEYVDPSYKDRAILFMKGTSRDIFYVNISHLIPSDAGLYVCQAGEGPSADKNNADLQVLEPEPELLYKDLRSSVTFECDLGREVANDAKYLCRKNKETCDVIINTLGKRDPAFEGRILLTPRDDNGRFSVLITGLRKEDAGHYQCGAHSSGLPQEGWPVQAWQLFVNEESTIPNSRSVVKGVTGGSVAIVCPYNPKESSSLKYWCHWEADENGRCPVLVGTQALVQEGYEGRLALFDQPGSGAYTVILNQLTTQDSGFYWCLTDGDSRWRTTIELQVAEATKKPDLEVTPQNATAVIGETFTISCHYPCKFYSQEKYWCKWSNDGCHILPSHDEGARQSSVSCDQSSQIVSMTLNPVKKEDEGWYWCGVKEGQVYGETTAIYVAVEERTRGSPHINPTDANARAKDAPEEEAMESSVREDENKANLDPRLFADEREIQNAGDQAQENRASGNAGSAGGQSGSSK

T2: mouse pIgR extracellular domain (ECD) (mouse, UniProt O70570 19-645)
T2 construct: Bought from R&D Systems (Cat 2800-PG-050); also called mpIgR ECD
T2 sequence: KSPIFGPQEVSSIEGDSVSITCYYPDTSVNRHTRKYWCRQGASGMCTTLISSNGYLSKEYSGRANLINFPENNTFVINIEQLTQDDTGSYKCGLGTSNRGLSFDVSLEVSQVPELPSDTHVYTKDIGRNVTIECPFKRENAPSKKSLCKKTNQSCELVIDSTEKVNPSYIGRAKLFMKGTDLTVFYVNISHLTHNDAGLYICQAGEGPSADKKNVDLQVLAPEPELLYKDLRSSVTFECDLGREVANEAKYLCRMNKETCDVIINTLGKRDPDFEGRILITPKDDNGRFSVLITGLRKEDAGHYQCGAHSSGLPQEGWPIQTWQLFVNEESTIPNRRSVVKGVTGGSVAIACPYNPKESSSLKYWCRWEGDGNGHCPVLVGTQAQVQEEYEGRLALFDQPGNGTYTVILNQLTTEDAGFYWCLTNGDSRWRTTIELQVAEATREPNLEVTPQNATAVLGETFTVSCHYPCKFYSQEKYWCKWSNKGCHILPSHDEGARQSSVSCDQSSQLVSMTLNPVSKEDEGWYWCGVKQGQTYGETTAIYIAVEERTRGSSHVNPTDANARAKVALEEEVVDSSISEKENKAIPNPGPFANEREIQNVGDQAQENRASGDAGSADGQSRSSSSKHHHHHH


Legend:
Assay in all cases: SPR, VHH captured by anti-Fc, ECD analyte
[1] = biological target: T1, rat pIgR extracellular domain
In short: (§1)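 Anti-human Fc surface captured VHH at 0.5 ug/ml (~200-300 RU); running buffer HBSP with 100 ug/ml BSA, 30 μL/min. Single-cycle kinetics with ECD injected low to high from 30 nM in 3-fold dilutions, dissociation 30 min. Double-referenced data globally fit to 1:1 Langmuir model for kon, koff, KD.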

[2] = biological target: T2, mouse pIgR extracellular domain (ECD)
In short: as §1

[3] = biological target: T3, human pIgR extracellular domain (ECD) (human, UniProt P01833 19-638)
T3 construct: Bought from R&D Systems (Cat 2717-PG-050); also called hpIgR ECD
T3 sequence (P01833 other isoform, or with tags, fused parts or gaps): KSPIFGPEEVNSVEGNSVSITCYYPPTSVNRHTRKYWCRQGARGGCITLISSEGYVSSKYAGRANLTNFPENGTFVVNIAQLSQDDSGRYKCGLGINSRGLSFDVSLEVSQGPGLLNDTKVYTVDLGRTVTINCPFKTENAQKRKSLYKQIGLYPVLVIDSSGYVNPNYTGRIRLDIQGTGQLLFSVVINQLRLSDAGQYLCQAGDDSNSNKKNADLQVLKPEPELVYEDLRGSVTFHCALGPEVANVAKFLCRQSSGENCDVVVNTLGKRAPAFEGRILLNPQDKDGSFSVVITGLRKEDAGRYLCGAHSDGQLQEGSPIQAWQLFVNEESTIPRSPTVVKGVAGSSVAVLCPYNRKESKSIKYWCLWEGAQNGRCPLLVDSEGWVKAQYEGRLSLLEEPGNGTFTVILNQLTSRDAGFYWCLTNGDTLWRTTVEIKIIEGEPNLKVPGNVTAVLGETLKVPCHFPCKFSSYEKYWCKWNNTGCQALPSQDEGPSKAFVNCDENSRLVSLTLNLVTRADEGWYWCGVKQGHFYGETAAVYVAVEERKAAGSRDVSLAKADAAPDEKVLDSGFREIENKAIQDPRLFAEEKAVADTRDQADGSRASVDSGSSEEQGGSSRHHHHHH
In short: as §1

[4] = biological target: T4, cynomolgus monkey pIgR extracellular domain (cynomolgus monkey, UniProt A0A2K5WMU9 19-638)
T4 construct: extracellular domain
T4 sequence (A0A2K5WMU9 entry or part of it): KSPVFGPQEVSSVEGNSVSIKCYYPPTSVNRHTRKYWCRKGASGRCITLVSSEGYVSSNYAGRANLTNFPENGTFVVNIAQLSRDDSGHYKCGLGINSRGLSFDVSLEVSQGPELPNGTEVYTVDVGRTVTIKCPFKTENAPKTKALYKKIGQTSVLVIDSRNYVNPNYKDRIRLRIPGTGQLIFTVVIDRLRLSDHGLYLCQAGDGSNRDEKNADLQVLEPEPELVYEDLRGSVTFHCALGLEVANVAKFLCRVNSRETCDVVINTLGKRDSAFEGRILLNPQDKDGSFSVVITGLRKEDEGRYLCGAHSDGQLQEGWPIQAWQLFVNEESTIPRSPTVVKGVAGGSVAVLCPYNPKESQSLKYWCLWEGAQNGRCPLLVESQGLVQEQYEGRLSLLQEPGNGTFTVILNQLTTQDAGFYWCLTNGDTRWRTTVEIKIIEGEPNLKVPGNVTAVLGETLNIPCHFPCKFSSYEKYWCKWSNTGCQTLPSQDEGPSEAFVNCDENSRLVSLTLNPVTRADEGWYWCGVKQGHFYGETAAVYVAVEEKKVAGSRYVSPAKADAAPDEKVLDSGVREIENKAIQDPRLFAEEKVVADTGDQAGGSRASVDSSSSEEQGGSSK
In short: as §1

Binder	Kd [1]	Kd [2]	Kd [3]	Kd [4]
01B03R2LS VHH Mono-Fc (Fc fusion) EVQLVESGGGLVQAGDSLRLSCAASGRTGSSGAMGWFRQGPGKEREFVAALMWRNTVTYSYYADSVKGRFTISRDNAKNTAYLQMNSLKPEDTAVYYCAADPDTYGDPRNSGAYSYWGQGTLVTVSSSPAPELLGGPSVFLFPPKPKDTLMISRTPEVTCVVVDVSHEDPEVKFNWYVDGVEVHNAKTKPREEQYNSTYRVVSVLTVLHQDWLNGKEYKCKVSNKALPAPIEKTISKAKGQPREPQVYTKPPSREEMTKNQVSLSCLVKGFYPSDIAVEWESNGQPENNYKTTVPVLDSDGSFRLASYLTVDKSRWQQGNVFSCSVMHEALHNHYTQKSLSLSPGK	11 nM	6.33 nM	–	–
02F10R3 VHH Mono-Fc (Fc fusion) EVQLVESGGGLVQPGGSLRLSCVVSGSFFSLRDMGWYRQAPGKERELVGIFTRGGTTYYADSVKGRFTISRDNAKNTVDLQMNSLKPEDTAVYTCNAEIRQYSANLYRDFWGQGTQVTVSSSPAPELLGGPSVFLFPPKPKDTLMISRTPEVTCVVVDVSHEDPEVKFNWYVDGVEVHNAKTKPREEQYNSTYRVVSVLTVLHQDWLNGKEYKCKVSNKALPAPIEKTISKAKGQPREPQVYTKPPSREEMTKNQVSLSCLVKGFYPSDIAVEWESNGQPENNYKTTVPVLDSDGSFRLASYLTVDKSRWQQGNVFSCSVMHEALHNHYTQKSLSLSPGK	6.45 nM	6.15 nM	–	–
01C02R3LS VHH Mono-Fc (Fc fusion) QVQLVESGGGLVQAGDSLRLSCAASGRTRTTYGMGWFRQAPGKEREFVTTITWSGSTNYKYYADSVKGRFTISRDNAKNTVYLQMNSLKPDDTAVYYCAASTVLTDPRVPTEYDYWGQGTQVTVSSSPAPELLGGPSVFLFPPKPKDTLMISRTPEVTCVVVDVSHEDPEVKFNWYVDGVEVHNAKTKPREEQYNSTYRVVSVLTVLHQDWLNGKEYKCKVSNKALPAPIEKTISKAKGQPREPQVYTKPPSREEMTKNQVSLSCLVKGFYPSDIAVEWESNGQPENNYKTTVPVLDSDGSFRLASYLTVDKSRWQQGNVFSCSVMHEALHNHYTQKSLSLSPGK	2.77 nM	4.96 nM	8.62 nM	3.09 nM
01B10R3L VHH Mono-Fc (Fc fusion) QVQLVESGGGLVQAGDSLRLSCAASGRTFTTYVMGWFRQPPGKEREFVATISWSGSTTYKYYADSVKGRFTISRDNAKNTVYLQMNSLKPEDTAVYYCAASTVVADPRAPNEYDYWGQGTQVTVSSSPAPELLGGPSVFLFPPKPKDTLMISRTPEVTCVVVDVSHEDPEVKFNWYVDGVEVHNAKTKPREEQYNSTYRVVSVLTVLHQDWLNGKEYKCKVSNKALPAPIEKTISKAKGQPREPQVYTKPPSREEMTKNQVSLSCLVKGFYPSDIAVEWESNGQPENNYKTTVPVLDSDGSFRLASYLTVDKSRWQQGNVFSCSVMHEALHNHYTQKSLSLSPGK	1.58 nM	3.75 nM	8.4 nM	2.19 nM
01H11R2LS VHH Mono-Fc (Fc fusion) EVQLVESGGGLVQAGDSLRLSCAASGRTLTTYGMGWFRQAPGKEREFVATIKWSGSTNYKYYADSVKGRFTISRDNAKNTVYLQMNSLKPEDTAVYYCAAGTVLGDPRVLNEYDYWGQGTLVTVSSSPAPELLGGPSVFLFPPKPKDTLMISRTPEVTCVVVDVSHEDPEVKFNWYVDGVEVHNAKTKPREEQYNSTYRVVSVLTVLHQDWLNGKEYKCKVSNKALPAPIEKTISKAKGQPREPQVYTKPPSREEMTKNQVSLSCLVKGFYPSDIAVEWESNGQPENNYKTTVPVLDSDGSFRLASYLTVDKSRWQQGNVFSCSVMHEALHNHYTQKSLSLSPGK	1.46 nM	2.67 nM	4.07 nM	2.31 nM
02E01R3LS VHH Mono-Fc (Fc fusion) QVQLVESGGGLVQAGDSLRLSCAASGRTFTTYGMGWFRQAPGKEREFVTTITWSGSTNYKYYADSVKGRFTISRDNAKNTVYLQMNSLKPDDTAVYYCAASTVLRDPRVPTEYDYWGQGTQVTVSSSPAPELLGGPSVFLFPPKPKDTLMISRTPEVTCVVVDVSHEDPEVKFNWYVDGVEVHNAKTKPREEQYNSTYRVVSVLTVLHQDWLNGKEYKCKVSNKALPAPIEKTISKAKGQPREPQVYTKPPSREEMTKNQVSLSCLVKGFYPSDIAVEWESNGQPENNYKTTVPVLDSDGSFRLASYLTVDKSRWQQGNVFSCSVMHEALHNHYTQKSLSLSPGK	1.64 nM	2.77 nM	5.32 nM	5.05 nM
01C08R2L VHH Mono-Fc (Fc fusion) EVQLVESGGGLVQAGDSLRLSCAASGRTFTTYGVGWFRQAPGKEREFVTTITWSGSTNYKYYADSVKGRFTISRDNAKNTVYLQMNSLKPDDTAVYYCAASTVLTDPRVPTEYDYWGQGTQVTVSSSPAPELLGGPSVFLFPPKPKDTLMISRTPEVTCVVVDVSHEDPEVKFNWYVDGVEVHNAKTKPREEQYNSTYRVVSVLTVLHQDWLNGKEYKCKVSNKALPAPIEKTISKAKGQPREPQVYTKPPSREEMTKNQVSLSCLVKGFYPSDIAVEWESNGQPENNYKTTVPVLDSDGSFRLASYLTVDKSRWQQGNVFSCSVMHEALHNHYTQKSLSLSPGK	3.02 nM	5.67 nM	9.44 nM	4.14 nM
01H06R3L VHH Mono-Fc (Fc fusion) EVQLVESGGGLVQAGDSLRLSCAASGRTRTTYGMGWFRQAPGKEREFVTTITWSGPTNYKYYADSVKGRFTISRDNAKNTAYLQMNSLKPDDTAVYYCAASTVLTDPRVPTEYDYWGQGTQVTVSSSPAPELLGGPSVFLFPPKPKDTLMISRTPEVTCVVVDVSHEDPEVKFNWYVDGVEVHNAKTKPREEQYNSTYRVVSVLTVLHQDWLNGKEYKCKVSNKALPAPIEKTISKAKGQPREPQVYTKPPSREEMTKNQVSLSCLVKGFYPSDIAVEWESNGQPENNYKTTVPVLDSDGSFRLASYLTVDKSRWQQGNVFSCSVMHEALHNHYTQKSLSLSPGK	0.897 nM	4.56 nM	5.26 nM	1.66 nM
01G08R3LS VHH Mono-Fc (Fc fusion) QVQLVESGGGLVQAGDSLRLSCAASGRTFTTYGMGWFRQGPGKEREFVATITWSGSTNYKYYTDSVKGRFTISRDNAKNTVYLQMNSLKPEDTAVYYCAASTVLTDPRRLNEYDYWGQGTQVTVSSSPAPELLGGPSVFLFPPKPKDTLMISRTPEVTCVVVDVSHEDPEVKFNWYVDGVEVHNAKTKPREEQYNSTYRVVSVLTVLHQDWLNGKEYKCKVSNKALPAPIEKTISKAKGQPREPQVYTKPPSREEMTKNQVSLSCLVKGFYPSDIAVEWESNGQPENNYKTTVPVLDSDGSFRLASYLTVDKSRWQQGNVFSCSVMHEALHNHYTQKSLSLSPGK	2.27 nM	5.6 nM	8.38 nM	5.42 nM
01E01R3LS VHH Mono-Fc (Fc fusion) QVQLVESGGGLVQAGGSLRLSCAASGRSFSSYNMGWFRQAPGKERDLVAVVTWSGGGTSYADSVKGRFTIARDNANARLYLEMTSLKPEDTAIYYCAATQDWYGGTRAFRAASFHSWGQGTQVTVSSSPAPELLGGPSVFLFPPKPKDTLMISRTPEVTCVVVDVSHEDPEVKFNWYVDGVEVHNAKTKPREEQYNSTYRVVSVLTVLHQDWLNGKEYKCKVSNKALPAPIEKTISKAKGQPREPQVYTKPPSREEMTKNQVSLSCLVKGFYPSDIAVEWESNGQPENNYKTTVPVLDSDGSFRLASYLTVDKSRWQQGNVFSCSVMHEALHNHYTQKSLSLSPGK	35.2 nM	34.5 nM	14.5 nM	–
01A09R3LS VHH Mono-Fc (Fc fusion) QVQLVESGGGLVQAGGSLRLSCAASGRSFSSYNMVWLRQAPGKEREVVAAVTWSGGGTSYADSVKGRFTISRDNANVRVYLQMTGLKPEDTAIYYCAATQDWYGGSRAFRAASFHSWGQGTLVTVSSSPAPELLGGPSVFLFPPKPKDTLMISRTPEVTCVVVDVSHEDPEVKFNWYVDGVEVHNAKTKPREEQYNSTYRVVSVLTVLHQDWLNGKEYKCKVSNKALPAPIEKTISKAKGQPREPQVYTKPPSREEMTKNQVSLSCLVKGFYPSDIAVEWESNGQPENNYKTTVPVLDSDGSFRLASYLTVDKSRWQQGNVFSCSVMHEALHNHYTQKSLSLSPGK	22.5 nM	35.2 nM	–	–
